Where no end group is shown, it is not given here.
T1: human hepcidin-25 (human, not fully specified)
T1 construct: also called human mature hepcidin
T1 peptide: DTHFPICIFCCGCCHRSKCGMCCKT

T2: rat hepcidin-25 (rat, UniProt Q99MH3 60-84)
T2 construct: mature
T2 peptide (looked up): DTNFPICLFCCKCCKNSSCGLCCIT

T3: mouse hepcidin-25 (mouse, UniProt Q9EQ21 59-83)
T3 construct: mature
T3 peptide (looked up): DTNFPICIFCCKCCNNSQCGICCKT

T4: cynomolgus monkey hepcidin-25 (cynomolgus monkey, UniProt A7XEI3 60-84, not fully specified)
T4 construct: mature; also called mature cynomolgous monkey hepcidin
T4 peptide: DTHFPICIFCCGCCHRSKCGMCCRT

B1: Fab 3.12 (Fab, V domains shown)
VH: QVQLVQSGAEVKKPGSSVKVSCKASGYTFLIYPISWVRQAPGQGLEWMGNFHPYLGVTNYLEKFKGRVTITADKSTSTAYMELSSLRSEDTAVYYCARGGTGSFDYWGQGTTVTVSS
VL: DIQMTQSPSSLSASVGDRVTITCSASSRVSSTYLFWYQQKPGKAPKLLIYRTSTLTSGVPSRFSGSGSGTDFTLTISSLQPEDFATYYCQQWSGYPFVFGGGTKVEIK
notes: Fab with human kappa, from E. coli periplasm; frameworks O2 and VH1-69
B2: Mab 3.23 (antibody, human IgG4 S228P, kappa, V domains shown)
VH: QVQLVQSGAEVKKPGSSVKVSCKASGYTFLIYPISWVRQAPGQGLEWMGNFHPYLGVTNYVEKFKGRVTITADKSTSTAYMELSSLRSEDTAVYYCARGGTGSFDYWGQGTTVTVSS
VL: DIQMTQSPSSLSASVGDRVTITCSASSRVSSTYLFWYQQKPGKAPKLLIYRTSPLASGVPSRFSGSGSGTDFTLTISSLQPEDFATYYCQQWSGYPFVFGGGTKVEIKR
B3: Mab 3.8 (antibody, human IgG4, V domains shown)
VH: QVQLVQSGAEVKKPGSSVKVSCKASGYTFLIYPISWVRQAPGQGLEWMGNFHPYLGVTNYLEKFKGRVTITADKSTSTAYMELSSLRSEDTAVYYCARGGTGSFDYWGQGTTVTVSS
VL: DIQMTQSPSSLSASVGDRVTITCSASSRVSSTYLFWYQQKPGKAPKLLIYRTSPLASGVPSRFSGSGSGTDFTLTISSLQPEDFATYYCQQWSGYPFTFGGGTKVEIKR
notes: Human engineered Mab, human IgG4
B4: Mab 3.12 (antibody, human IgG4 S228P, kappa, V domains shown)
VH: QVQLVQSGAEVKKPGSSVKVSCKASGYTFLIYPISWVRQAPGQGLEWMGNFHPYLGVTNYLEKFKGRVTITADKSTSTAYMELSSLRSEDTAVYYCARGGTGSFDYWGQGTTVTVSS
VL: DIQMTQSPSSLSASVGDRVTITCSASSRVSSTYLFWYQQKPGKAPKLLIYRTSTLTSGVPSRFSGSGSGTDFTLTISSLQPEDFATYYCQQWSGYPFVFGGGTKVEIKR
B5: Mab Hu22 (antibody, human IgG4 S228P, kappa, V domains shown)
VH: QVQLVQSGAEVKKPGSSVKVSCKASGYTFTIYPISWVRQAPGQGLEWMGNFHPYLGDTNYNEKFKGRVTITADKSTSTAYMELSSLRSEDTAVYYCARGGTGSFDYWGQGTTVTVSS
VL: DIQMTQSPSSLSASVGDRVTITCSASSRVSSTYLFWYQQKPGKAPKLLIYRTSTLASGVPSRFSGSGSGTDFTLTISSLQPEDFATYYCQQWSGYPFTFGGGTKVEIKR
B6: Fab 1.7 (Fab, V domains shown)
VH: QVQLVQSGAEVKKPGSSVKVSCKASGYTFTIYPISWVRQAPGQGLEWMGNFHPYLGDTRYVEKFKGRVTITADKSTSTAYMELSSLRSEDTAVYYCARGGTGSFDYWGQGTTVTVSS
VL: DIQMTQSPSSLSASVGDRVTITCSASSRVSSTYLFWYQQKPGKAPKLLIYRTSTLVSGVPSRFSGSGSGTDFTLTISSLQPEDFATYYCQQWSGYPFVFGGGTKVEIK
notes: Fab with human kappa
B7: Fab Hu22 (Fab, V domains shown)
VH: QVQLVQSGAEVKKPGSSVKVSCKASGYTFTIYPISWVRQAPGQGLEWMGNFHPYLGDTNYNEKFKGRVTITADKSTSTAYMELSSLRSEDTAVYYCARGGTGSFDYWGQGTTVTVSS
VL: DIQMTQSPSSLSASVGDRVTITCSASSRVSSTYLFWYQQKPGKAPKLLIYRTSTLASGVPSRFSGSGSGTDFTLTISSLQPEDFATYYCQQWSGYPFTFGGGTKVEIK
notes: as for B1
B8: Fab 3.23 (Fab, V domains shown)
VH: QVQLVQSGAEVKKPGSSVKVSCKASGYTFLIYPISWVRQAPGQGLEWMGNFHPYLGVTNYVEKFKGRVTITADKSTSTAYMELSSLRSEDTAVYYCARGGTGSFDYWGQGTTVTVSS
VL: DIQMTQSPSSLSASVGDRVTITCSASSRVSSTYLFWYQQKPGKAPKLLIYRTSPLASGVPSRFSGSGSGTDFTLTISSLQPEDFATYYCQQWSGYPFVFGGGTKVEIK
notes: as for B1
B9: Mab L1.5 (antibody, human IgG4 S228P, kappa, V domains shown)
VH: QVQLVQSGAEVKKPGSSVKVSCKASGYTFLIYPISWVRQAPGQGLEWMGNFHPYLGVTNYLEKFKGRVTITADKSTSTAYMELSSLRSEDTAVYYCARGGTGSFDYWGQGTTVTVSS
VL: DIQMTQSPSSLSASVGDRVTITCSAESRVSSTYLFWYQQKPGKAPKLLIYRTSPLASGVPSRFSGSGSGTDFTLTISSLQPEDFATYYCQQWSGYPFTFGGGTKVEIKR
B10: human hepcidin-25 (peptide)
peptide: DTHFPICIFCCGCCHRSKCGMCCKT
modifications: ends and bridges not checked; cysteine pairing not given here

Key:
human hepcidin-25 [1] = molecular target: T1, human hepcidin-25; assay: SPR (BIAcore), Fab captured on goat anti-human kappa, human hepcidin-25 injected, 25 C
Protocol: (§1) Except as noted, all reagents and materials are purchased from BIAcore® AB (Upsala, Sweden). All measurements are performed at 25° C. Samples are dissolved in HBS-EP buffer (150 mM sodium chloride, 3 mM EDTA, 0.05% (w/v) surfactant P-20, and 10 mM HEPES, pH 7.4). To capture Fabs with human kappa, goat-anti-human kappa is immobilized on flow cells 1 to 4 of a CM5 sensor chip at a level of 5000-10000 response units (Rus) using an amine coupling kit. To capture Mabs with mouse IgG1, goat-anti-mouse Fc gamma is immobilized on flow cells 1 to 4 of a CM5 sensor chip at a level of 5000-10000 Rus using an amine coupling kit. To capture antibodies with human IgG4, protein A is immobilized on flow cells 1 to 4 of a CM4 sensor chip at a level of 400-700 Rus using an amine coupling kit. Fabs prepared from E. coli periplasma and Mabs prepared from mammalian cell culture are evaluated using multiple analytical cycles. […] The measurements are obtained at 25° C. and the association and dissociation rates for each cycle are evaluated using a “1:1 with mass transfer” binding model in the BLAevaluation software.

rat hepcidin-25 = molecular target: T2, rat hepcidin-25; assay: SPR (BIAcore), 25 C
Protocol: as §1

mouse hepcidin-25 = molecular target: T3, mouse hepcidin-25; assay: SPR (BIAcore), captured Mab, mouse hepcidin-25 injected, 25 C
Protocol: as §1

[2] = molecular target: T4, cynomolgus monkey hepcidin-25; assay: SPR (BIAcore), captured Mab, cynomolgus monkey hepcidin-25 injected, 25 C
Protocol: as §1

human hepcidin-25 [3] = molecular target: T1, human hepcidin-25; assay: SPR (BIAcore), Mab captured on protein A, human hepcidin-25 injected, 25 C
Protocol: as §1

[4] = molecular target: T4, cynomolgus monkey hepcidin-25; assay: SPR (BIAcore), 25 C
Protocol: as §1

[5] = molecular target: ferroportin C-terminally fused with green fluorescent protein (human), Q9NP59; assay: cell-based or functional assay
Sequence of ferroportin C-terminally fused with green fluorescent protein (human), Q9NP59 (Q9NP59 whole entry, the tested form may be a part): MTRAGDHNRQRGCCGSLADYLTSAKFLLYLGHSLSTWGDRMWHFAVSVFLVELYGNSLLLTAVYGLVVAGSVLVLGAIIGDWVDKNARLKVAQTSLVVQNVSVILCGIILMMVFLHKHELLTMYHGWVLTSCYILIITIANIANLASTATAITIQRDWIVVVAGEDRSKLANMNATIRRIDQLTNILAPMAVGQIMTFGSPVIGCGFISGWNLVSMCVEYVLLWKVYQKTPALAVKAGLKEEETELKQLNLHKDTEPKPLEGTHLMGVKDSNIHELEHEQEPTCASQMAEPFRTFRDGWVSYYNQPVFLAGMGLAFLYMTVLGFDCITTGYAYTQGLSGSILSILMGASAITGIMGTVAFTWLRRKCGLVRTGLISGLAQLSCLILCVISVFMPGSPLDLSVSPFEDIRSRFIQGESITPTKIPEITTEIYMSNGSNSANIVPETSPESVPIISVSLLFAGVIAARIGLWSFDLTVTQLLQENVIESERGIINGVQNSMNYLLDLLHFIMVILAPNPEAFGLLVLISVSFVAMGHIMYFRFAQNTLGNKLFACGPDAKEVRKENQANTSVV

Binder | Kd (human hepcidin-25 [1]) [nM] | koff (human hepcidin-25 [1]) [s⁻¹] | kon (human hepcidin-25 [1]) [M⁻¹ s⁻¹] | Kd (mouse hepcidin-25) [nM] | koff (mouse hepcidin-25) [s⁻¹] | kon (mouse hepcidin-25) [M⁻¹ s⁻¹] | Kd [2] [nM] | koff [2] [s⁻¹] | kon [2] [M⁻¹ s⁻¹] | Kd (human hepcidin-25 [3]) [nM] | koff (human hepcidin-25 [3]) [s⁻¹] | kon (human hepcidin-25 [3]) [M⁻¹ s⁻¹] | other results
B1 | 0.0883 | 0.000347 | 3.94e+06 |  |  |  |  |  |  |  |  |  | 
B2 |  |  |  | 50.1 | 0.192 | 3.83e+06 | 0.0888 | 0.000577 | 6.51e+06 | 0.0994 | 0.000659 | 6.2e+06 | binding result (rat hepcidin-25): no binding
B3 |  |  |  | 34.6 | 0.124 | 3.57e+06 | 0.00933 | 0.00066 | 7.07e+07 | 0.105 | 0.000768 | 5.58e+06 | fold lower KD than for human hepcidin-25 [4]: > 10 fold
B4 |  |  |  |  |  |  |  |  |  | 0.0599 | 0.00022 | 3.68e+06 | 
B5 |  |  |  | 77.6 | 0.126 | 1.62e+06 | 0.986 | 0.00816 | 8.13e+06 | 0.764 | 0.00864 | 1.09e+07 | binding result (rat hepcidin-25): no binding
B6 | 0.422 | 0.00148 | 3.8e+06 |  |  |  |  |  |  |  |  |  | 
B7 | 0.647 | 0.00456 | 7.05e+06 |  |  |  |  |  |  |  |  |  | 
B8 | 0.0788 | 0.000278 | 3.53e+06 |  |  |  |  |  |  |  |  |  | 
B9 |  |  |  |  |  |  |  |  |  | 0.0342 | 0.000182 | 5.31e+06 | 
B10 |  |  |  |  |  |  |  |  |  |  |  |  | hepcidin-induced internalization and degradation of ferroportin (FPN-GFP fluorescence in HEK 293 cells), concentration of maximal effect [5]: 0.5 µM

Reference: patent US20090136495A1 (Eli Lilly, published 2009)
